These results are taken from patent US20090142377A1.

In assay [1] the target is cdH5-0 (supernatant of dH5-0 after 10 minutes centrifugation at 16,000-18,000*g) (influenza A virus H5N1 strain A/Vietnam/1203/04). In words: ELISA, coated H5 form; scaled. For orientation: ELISA stands for enzyme-linked immunosorbent assay.
The target of assay [2] is dH5-I (cdH5-0 heat-cycled at pH 7) (influenza A virus H5N1 strain A/Vietnam/1203/04) (UniProt Q8QPL1). In words: ELISA, coated H5 form; scaled.
Assay [3] concerns the target dH5-II (cdH5-0 heat-cycled at pH 2, back to pH 7) (influenza A virus H5N1 strain A/Vietnam/1203/04) (UniProt Q8QPL1). In words: ELISA, coated H5 form; scaled.
Assay [4] has as its target dH5-III (cdH5-0 incubated about 16 h at 47.5 C) (influenza A virus H5N1 strain A/Vietnam/1203/04) (UniProt Q8QPL1). Nature of the assay: ELISA, coated H5 form; scaled.
Assay [5] concerns the target fdH5-0 (ultrafiltrated dH5-0: flow-through of cdH5-0 through a 1,000 kDa cut-off filter) (influenza A virus H5N1 strain A/Vietnam/1203/04). In words: ELISA, coated H5 form; scaled.
The target in assay [6] is cross-beta nOVA: ovalbumin (chicken egg-white albumin) dissolved at 1 mg/ml in PBS (chicken) (UniProt P01012). In words: ELISA, immobilized OVA form.
Assay [7] concerns the target dOVA-1: ovalbumin 5.2 mg/ml in HBS, acidified with HCl, 40 minutes at 37 C, neutralized (chicken) (UniProt P01012). Nature of the assay: ELISA, immobilized OVA form.
Assay [8] has as its target dOVA-2: ovalbumin 1 mg/ml in PBS, five heat cycles 30 to 85 C (chicken) (UniProt P01012). In words: ELISA, immobilized OVA form.
The target of assay [9] is dOVA-3: ovalbumin 1 mg/ml in PBS, about 16 h at 75 C (chicken) (UniProt P01012). Nature of the assay: ELISA, immobilized OVA form.
Assay [10] addresses non-treated H5 (nH5) of H5N1 strain A/Vietnam/1203/04 (Protein Sciences) (influenza A virus H5N1 strain A/Vietnam/1203/04). Nature of the assay: ELISA, coated nH5, antibody 1:2000.
Assay [11] addresses cdH5-0 (supernatant of dH5-0 after 10 minutes centrifugation at 16,000-18,000*g) (influenza A virus H5N1 strain A/Vietnam/1203/04). Nature of the assay: ELISA, coated H5 form, tPA series with excess e-amino caproic acid.
Assay [12] addresses fdH5-0 (ultrafiltrated dH5-0: flow-through of cdH5-0 through a 1,000 kDa cut-off filter) (influenza A virus H5N1 strain A/Vietnam/1203/04). The assay is described as above.
Assay [13] concerns the target cross-beta nOVA: ovalbumin (chicken egg-white albumin) dissolved at 1 mg/ml in PBS (chicken) (UniProt P01012). Nature of the assay: ELISA, immobilized OVA; normalized to nOVA.
For assay [14], the target named is cdH5-0 (supernatant of dH5-0 after 10 minutes centrifugation at 16,000-18,000*g) (influenza A virus H5N1 strain A/Vietnam/1203/04). Nature of the assay: ELISA, immobilized H5; normalized to cdH5-0.
Assay [15] deals with dH5-I (cdH5-0 heat-cycled at pH 7) (influenza A virus H5N1 strain A/Vietnam/1203/04) (UniProt Q8QPL1). Nature of the assay: ELISA, immobilized H5; normalized to cdH5-0.
The target in assay [16] is fdH5-0 (ultrafiltrated dH5-0: flow-through of cdH5-0 through a 1,000 kDa cut-off filter) (influenza A virus H5N1 strain A/Vietnam/1203/04). Nature of the assay: ELISA, immobilized H5; normalized to cdH5-0.

Regarding “Rockland anti-H5 A/VN/1203/04 mouse monoclonal antibody, catalogue number 200-301-977”, the relative affinity kD in [1] amounted to 100 a.u; in assay [2], 0 a.u; in assay [3] it was 0 a.u; in assay [4] it was 35 a.u; in assay [5] it was 93 a.u.

“mouse HYB 099-01 (IgG1) anti-OVA monoclonal antibody”: the relative affinity kD in [6] worked out at 98.5 a.u; in assay [7], 115 a.u; in assay [8] it was 129 a.u; in [9], 80.9 a.u.

Turning to “mouse HYB 099-09 (IgG1) anti-OVA monoclonal antibody”, the relative affinity kD in assay [6] was 71.2 a.u; in assay [7] it was 127 a.u; in assay [8] it was 85.1 a.u; in assay [9], 164 a.u.

Turning to “mouse HYB 099-02 (IgG1) anti-OVA monoclonal antibody”, the relative affinity kD came out at 103 a.u in assay [6], 154 a.u in [7], 118 a.u in [8] and 154 a.u in assay [9].

Take “HyTest clone 17C8, mouse monoclonal anti-H5 antibody”: the relative affinity kD amounted to 100 a.u in [1]; 51 a.u in assay [2]; 34 a.u in assay [3]; 68 a.u in assay [4]; 128 a.u in [5].

On to “HyTest IgG2a clone 15A6, mouse monoclonal anti-H5 antibody”, for which the relative affinity kD in [1] was 100 a.u; in assay [2] it was 105 a.u; in assay [3], 31 a.u; in assay [4], 76 a.u; in assay [5] it was 204 a.u.

Regarding “Rockland anti-H5 A/VN/1203/04 mouse monoclonal antibody, catalogue number 200-301-975”, the relative affinity kD in assay [1] was 100 a.u; in assay [2] it was 47 a.u; in assay [3] it was 79 a.u; in [4], 78 a.u; in assay [5], 103 a.u. Besides, the ELISA signal in assay [10] worked out at 1.5.

For the substance Sigma C6534 anti-OVA antibody, the relative affinity kD in [6] turned out to be 84.9 a.u; in assay [7], 44 a.u; in [8] it was 221 a.u; in [9], 287 a.u.

Regarding “tissue type plasminogen activator (tPA; Actilyse, Boehringer-Ingelheim) (from UniProt P00750 36-562) (enzyme)”, the Bmax in [11] is 0.36; in assay [12], 0.37.

As for “HyTest IgG2a clone 8D2, mouse monoclonal anti-H5 antibody”, the relative affinity kD in [1] is 100 a.u; in assay [2], 34 a.u; in assay [3], 36 a.u; in assay [4] it was 72 a.u; in assay [5], 125 a.u.

Take “Rockland anti-H5 A/VN/1203/04 mouse monoclonal antibody, catalogue number 200-301-979”: the relative affinity kD in assay [1] worked out at 100 a.u; in assay [2] it was 125 a.u; in assay [3], 83 a.u; in assay [4], 126 a.u; in [5], 97 a.u.

For the substance “Rockland anti-H5 A/VN/1203/04 mouse monoclonal antibody, catalogue number 200-301-976”, the relative affinity kD amounted to 100 a.u in [1]; 0 a.u in assay [2]; 132 a.u in assay [3]; 127 a.u in assay [4]; 105 a.u in assay [5].

In turn, “monoclonal anti-OVA IgG (A6075, Sigma) (antibody)” registered a relative affinity kD in assay [7] of 20.8 a.u.

Turning to “fourth and fifth finger domain of fibronectin (Fn F4-5), with C-terminal FLAG-tag (from UniProt P02751 183-275)”, the Normalized affinity, kD (%) in assay [13] stood at 100%; in assay [14] it was 100%; in assay [15], 0%; in assay [16] it was 69%.

“Rockland anti-H5 A/VN/1203/04 mouse monoclonal antibody, catalogue number 200-301-978”: the relative affinity kD is 100 a.u in assay [1]; 115 a.u in [2]; 31 a.u in assay [3]; 112 a.u in assay [4]; 107 a.u in assay [5].
